Assay results reported in patent publication CN116284426A (SUNSHINE GUOJIAN PHARMACEUTICAL SHANGHAI CO LTD, dated 2023).
One block for each binder: values may come before it.

Key:
[1] = biological target: T1, GUCY2C-Fc蛋白 (human GUCY2C extracellular region fused to human IgG1 Fc) (human, UniProt P25092 24-430); assay: ELISA, GUCY2C-Fc coated, anti-human IgG Fab HRP
T1 construct: extracellular domain; Made in HEK-293F with an unspecified N-terminal signal peptide; also called 人GUCY2C-Fc蛋白; not shown: human IgG1 Fc at the C-terminus in place of the 6xHis tag

[2] = biological target: T2, GUCY2C-His蛋白 (human GUCY2C extracellular region with C-terminal 6xHis) (human, UniProt P25092 24-430); assay: ELISA, GUCY2C-His coated, anti-human IgG Fab HRP (Table 17)
T2 construct: extracellular domain; Made in HEK-293F with an unspecified N-terminal signal peptide; also called 人GUCY2C-His蛋白

[3] = biological target: T1, GUCY2C-Fc蛋白 (human GUCY2C extracellular …); assay: ELISA, GUCY2C-Fc coated, anti-human IgG Fab HRP (Table 11)
[4] = biological target: T2, GUCY2C-His蛋白 (human GUCY2C …); assay: ELISA, GUCY2C-His coated, anti-human IgG Fab HRP (Table 9)
[5] = biological target: T1, GUCY2C-Fc蛋白 (human GUCY2C extracellular …); assay: ELISA, GUCY2C-Fc coated, anti-human IgG Fab HRP (Table 18)
[6] = biological target: T2, GUCY2C-His蛋白 (human GUCY2C …); assay: ELISA, GUCY2C-His coated, anti-human IgG Fc HRP
[7] = biological target: T3, GUCY2C on tumour cells (CW2, CW2-GCC#1, T84) (human, UniProt P25092 24-1073); assay: flow cytometry on CW2-GCC#1 cells (GUCY2C-overexpressing CW2)
T3 construct: whole, on cells; Only CW2-GCC#1 is expressly said to express GUCY2C; also called 鸟苷酸环化酶2C; 人结肠癌细胞CW2

[8] = biological target: T1, GUCY2C-Fc蛋白 (human GUCY2C extracellular …); assay: indirect ELISA, GUCY2C-Fc coated at 1 ug/mL, anti-mouse HRP
[9] = biological target: T2, GUCY2C-His蛋白 (human GUCY2C …); assay: ELISA, GUCY2C-His coated at 0.1 ug/mL, anti-mouse HRP (Table 4)
[10] = biological target: T3, GUCY2C on tumour cells (CW2, CW2-GCC#1, …); assay: flow cytometry on CW2 human colon cancer cells, anti-mouse PE
[11] = biological target: T2, GUCY2C-His蛋白 (human GUCY2C …); assay: ELISA, GUCY2C-His coated, anti-human IgG Fc HRP; remark: listed apart in the source
[12] = biological target: T4, CD3ε-ECD-his (UniProt P07766 23-126); assay: ELISA, CD3ε-ECD-his coated at 1 ug/mL, anti-human IgG Fab HRP (Table 14)
T4 construct: extracellular domain; also called CD3ε蛋白

[13] = biological target: T3, GUCY2C on tumour cells (CW2, CW2-GCC#1, …); assay: cell-based or functional assay
[14] = biological target: T2, GUCY2C-His蛋白 (human GUCY2C …); assay: ELISA, GUCY2C-His coated, anti-human IgG Fab HRP (Table 10)
[15] = biological target: T1, GUCY2C-Fc蛋白 (human GUCY2C extracellular …); assay: ELISA, GUCY2C-Fc coated, anti-human IgG Fab HRP (Table 12)
[16] = biological target: T2, GUCY2C-His蛋白 (human GUCY2C …); assay: ELISA, GUCY2C-His coated at 0.1 ug/mL, anti-mouse HRP (Table 3)
[17] = biological target: T3, GUCY2C on tumour cells (CW2, CW2-GCC#1, …); assay: cell-based or functional assay; remark: listed apart in the source
[18] = biological target: T4, CD3ε-ECD-his; assay: ELISA, CD3ε-ECD-his coated; reference SP34
[19] = biological target: T4, CD3ε-ECD-his; assay: ELISA, CD3ε-ECD-his coated at 1 ug/mL (Table 19)

T4 sequence (P07766 other isoform, or with tags, fused parts or gaps): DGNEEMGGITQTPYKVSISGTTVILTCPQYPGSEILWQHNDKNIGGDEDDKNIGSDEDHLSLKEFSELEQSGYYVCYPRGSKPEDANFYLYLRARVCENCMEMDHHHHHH
T2 sequence (P25092 other isoform, or with tags, fused parts or gaps): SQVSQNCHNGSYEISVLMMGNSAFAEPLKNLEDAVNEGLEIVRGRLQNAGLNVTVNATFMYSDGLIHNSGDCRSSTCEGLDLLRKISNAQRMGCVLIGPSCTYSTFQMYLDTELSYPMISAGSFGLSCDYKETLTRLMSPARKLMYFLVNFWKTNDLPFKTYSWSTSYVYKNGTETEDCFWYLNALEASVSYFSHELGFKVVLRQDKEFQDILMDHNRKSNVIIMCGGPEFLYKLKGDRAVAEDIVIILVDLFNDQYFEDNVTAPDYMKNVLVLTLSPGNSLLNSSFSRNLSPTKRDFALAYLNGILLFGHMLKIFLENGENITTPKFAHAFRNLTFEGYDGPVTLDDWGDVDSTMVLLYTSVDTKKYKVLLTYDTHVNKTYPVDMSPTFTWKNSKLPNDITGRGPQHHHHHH
T1 sequence (P25092 24-430 limits assumed): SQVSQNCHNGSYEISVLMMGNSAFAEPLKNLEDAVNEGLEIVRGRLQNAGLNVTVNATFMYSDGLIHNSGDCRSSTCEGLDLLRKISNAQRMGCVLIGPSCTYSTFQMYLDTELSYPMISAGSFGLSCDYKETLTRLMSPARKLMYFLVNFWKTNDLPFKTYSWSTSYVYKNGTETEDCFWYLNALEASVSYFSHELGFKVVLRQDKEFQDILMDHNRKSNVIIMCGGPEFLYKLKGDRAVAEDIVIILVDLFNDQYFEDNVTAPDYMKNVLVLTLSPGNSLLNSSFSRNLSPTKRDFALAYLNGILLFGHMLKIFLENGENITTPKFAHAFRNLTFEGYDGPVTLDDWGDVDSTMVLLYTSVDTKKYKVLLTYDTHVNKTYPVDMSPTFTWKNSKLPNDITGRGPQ
T3 sequence (P25092 24-1073): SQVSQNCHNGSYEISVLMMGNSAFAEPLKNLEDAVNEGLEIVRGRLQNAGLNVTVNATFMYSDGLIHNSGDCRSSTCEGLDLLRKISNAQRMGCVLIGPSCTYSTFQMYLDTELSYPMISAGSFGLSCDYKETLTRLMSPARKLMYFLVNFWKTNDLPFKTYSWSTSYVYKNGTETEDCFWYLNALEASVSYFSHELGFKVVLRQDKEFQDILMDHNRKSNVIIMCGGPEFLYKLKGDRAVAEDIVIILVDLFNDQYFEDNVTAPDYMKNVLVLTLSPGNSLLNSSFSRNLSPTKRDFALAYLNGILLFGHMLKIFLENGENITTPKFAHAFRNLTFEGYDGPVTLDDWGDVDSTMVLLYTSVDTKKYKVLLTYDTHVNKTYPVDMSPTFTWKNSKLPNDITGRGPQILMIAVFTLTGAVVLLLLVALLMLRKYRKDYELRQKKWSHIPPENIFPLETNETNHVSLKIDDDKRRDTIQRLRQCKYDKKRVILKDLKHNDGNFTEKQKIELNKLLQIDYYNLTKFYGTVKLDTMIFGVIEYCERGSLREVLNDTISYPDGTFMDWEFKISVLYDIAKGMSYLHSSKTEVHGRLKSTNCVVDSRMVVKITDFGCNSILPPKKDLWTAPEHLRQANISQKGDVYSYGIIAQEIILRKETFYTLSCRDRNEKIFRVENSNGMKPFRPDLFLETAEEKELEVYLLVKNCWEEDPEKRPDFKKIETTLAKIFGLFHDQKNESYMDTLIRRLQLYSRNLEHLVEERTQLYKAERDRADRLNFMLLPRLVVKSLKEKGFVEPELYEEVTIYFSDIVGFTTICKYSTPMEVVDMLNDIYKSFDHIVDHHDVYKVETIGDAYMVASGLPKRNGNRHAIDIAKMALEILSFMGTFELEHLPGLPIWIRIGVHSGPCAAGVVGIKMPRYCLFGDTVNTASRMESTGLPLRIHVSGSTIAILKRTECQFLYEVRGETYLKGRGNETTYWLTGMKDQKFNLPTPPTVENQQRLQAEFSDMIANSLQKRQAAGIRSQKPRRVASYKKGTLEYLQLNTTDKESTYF

EC50 [1]: 0.452 nM
EC50 [2]: 0.244 nM
EC50 [3]: 0.23 nM
EC50 [4]: 0.24 nM
EC50 [5]: 0.759 nM
EC50 [6]: 0.468 nM
EC50 [7]: 96.3 nM
B1: 32H2-Hu (antibody, V domains shown)
VH: EVQLVESGGGLVKPGGSLRLSCAASGFSFRTYAMSWVRQAPGKSLEWVATISSGSSYIYYPDSVKGRFTVSRDNAKNSLYLQMNSLRAEDTAVYYCTCYRMETFEYWGQGTLVTVSS
VL: DVVMTQSPLSLPVTLGQPASISCRSSQSLVYNNGNTYLHWYQQRPGQSPRLLIYKVSNRFSGVPDRFSGSGSGTDFTLKISRVEAEDVGVYFCSQSTHVPLTFGQGTKVEIKR

EC50 [8]: 0.0307 mg/L
EC50 [9]: 0.8 nM
EC50 [10]: 0.137 mg/L
B2: 10D7A7 (antibody, V domains shown)
VH: QVQLKQSGPGLVQPSQSLSITCTVSGFSLTNYGVHWVRQSPGKGLEWLGVIWSGGRKDYNAAFISRLNITKDNSKSQVFFTMNSLHSDDTAIYYCARHGTYPYWYFALWGAGTSVTISS
VL: DIQMTQTTSSLSASLGDRVTISCRASQDISNYLNWYQQKPDGTFKLLVYYTSRLQSGVPSRFSGSGSGTLYSLTISTLEQEDVATYFCQQGKTLPFSFGGGTRLEIK

EC50 [11]: 0.113 nM
B3: 10D7-ch (antibody, V domains shown)
VH: B2 VH
VL: DIQMTQTTSSLSASLGDRVTISCRASQDISNYLNWYQQKPDGTFKLLVYYTSRLQSGVPSRFSGSGSGTLYSLTISTLEQEDVATYFCQQGKTLPFSFGGGTRLEIKR

EC50 [8]: 0.00709 mg/L
EC50 [9]: 0.26 nM
EC50 [10]: 9.6 mg/L
B4: 32H2G1A1 (antibody, V domains shown)
VH: EVMLVESGGDLVKPGGSLKLSCAASGFSFRTYAMSWVRQSPEKSLEWVATISSGSSYIYYPDSVKGRFTVFRDNAKNTLYLQMSSLRSEDSAIYYCTCYRMETFEYWGQGTTLTVSS
VL: DVVMTQTPLSLPVSLGDEASISCRSSQSLVYNNGNTYLHWYLQKPGQSPKLLIYKVSNRFSGVPDRFSGSGSGTDFTLKISRVEAEDLGVYFCSQSTHVPLTFGAGTKLELK

EC50 [11]: 0.141 nM
B5: 32H2-ch (antibody, V domains shown)
VH: B4 VH
VL: DVVMTQTPLSLPVSLGDEASISCRSSQSLVYNNGNTYLHWYLQKPGQSPKLLIYKVSNRFSGVPDRFSGSGSGTDFTLKISRVEAEDLGVYFCSQSTHVPLTFGAGTKLELKR

EC50 [12]: 1.09 nM
EC50 [3]: 0.38 nM
EC50 [4]: 0.49 nM
EC50 [14]: 0.49 nM
EC50 [15]: 0.43 nM
B6: 32H2-SP4VHL-L (bispecific antibody, human IgG1, kappa)
heavy: not shown
light: DVVMTQSPLSLPVTLGQPASISCRSSQSLVYNNGNTYLHWYQQRPGQSPRLLIYKVSNRFSGVPDRFSGSGSGTDFTLKISRVEAEDVGVYFCSQSTHVPLTFGQGTKVEIKRTVAAPSVFIFPPSDEQLKSGTASVVCLLNNFYPREAKVQWKVDNALQSGNSQESVTEQDSKDSTYSLSSTLTLSKADYEKHKVYACEVTHQGLSSPVTKSFNRGECGGGGSGGGGSGGGGSEVQLVESGGGLVQPGGSLRLSCAASGFTFNTYAMNWVRQAPGKGLEWVARIRSKYNNYATYYADSVKDRFTISRDDSKNTLYLQMNSLRAEDTAVYYCVRHGNFGNSYVSWFAYWGQGTLVTVSSGGGGSGGGGSGGGGSGGGGSQAVVTQEPSLTVSPGGTVTLTCRSSTGAVTTSNYANWVQQKPGQAPRGLIGGTNKRAPGVPARFSGSLLGGKAALTLSGAQPEDEAEYYCALWYSNLWVFGQGTKVEIK
notes: also called 结构19
IC50 of T-cell-mediated killing of CW2 cells (CTG, E:T 5:1, 96 h) [13]: 0.08 nM

EC50 [16]: 0.99 nM
EC50 [8]: 0.018 mg/L
EC50 [10]: 0.365 mg/L
B7: 43D11B1D2 (antibody, V domains shown)
VH: DVKLVESGGVLVKLGGSLKLSCAASGFTFSGYFMSWVRQTPEKRLELVAAINSDGGSTYYPDTVKGRFTISRDNAKNTLYLQMSSLKSEDTALYYCARLARYLYAMDYWGQGTSVTVSS
VL: QIVLTQSPAIMSASPGEKVTMTCSASSSVSYMYWYQQKPGSSPRLLIYDTSNLASGVPVRFSGSGSGTSYSLTISRMEAEDAATYYCQQWTSSSWTFGGGTKLEIK

EC50 [11]: 5.19 nM
B8: 43D11-ch (antibody, V domains shown)
VH: B7 VH
VL: QIVLTQSPAIMSASPGEKVTMTCSASSSVSYMYWYQQKPGSSPRLLIYDTSNLASGVPVRFSGSGSGTSYSLTISRMEAEDAATYYCQQWTSSSWTFGGGTKLEIKR

EC50 [12]: 0.59 nM
EC50 [2]: 1.84 nM
EC50 [3]: 1 nM
EC50 [4]: 1.86 nM
fold weaker affinity than SP34 [18]: ~5 fold
EC50 [5]: 2.83 nM
EC50 [14]: 2.09 nM
EC50 [15]: 1.19 nM
EC50 [19]: 0.792 nM
B9: SP4VHL-32H2 (bispecific antibody, human IgG1, kappa)
heavy: not shown
light: DVVMTQSPLSLPVTLGQPASISCRSSQSLVYNNGNTYLHWYQQRPGQSPRLLIYKVSNRFSGVPDRFSGSGSGTDFTLKISRVEAEDVGVYFCSQSTHVPLTFGQGTKVEIKRTVAAPSVFIFPPSDEQLKSGTASVVCLLNNFYPREAKVQWKVDNALQSGNSQESVTEQDSKDSTYSLSSTLTLSKADYEKHKVYACEVTHQGLSSPVTKSFNRGEC
notes: The anti-CD3 scFv (VH-L-VL of humanized SP34) sits at the N-terminus of the heavy chain; also called 结构2
IC50 of T-cell-mediated killing of CW2 cells (CTG, E:T 5:1, 96 h) [13]: 0.46 nM
IC50 of T-cell-mediated killing of T84 cells [17]: 0.004 nM

EC50 [12]: 0.37 nM
EC50 [2]: 0.188 nM
EC50 [3]: 0.24 nM
EC50 [4]: 0.29 nM
fold weaker affinity than SP34 [18]: ~2 fold
EC50 [5]: 0.521 nM
EC50 [14]: 0.23 nM
EC50 [15]: 0.33 nM
EC50 [19]: 0.309 nM
B10: 32H2CH1-SP4VHL (bispecific antibody)
heavy: not shown
light: B9 light
notes: also called 结构7
IC50 of T-cell-mediated killing of CW2 cells (CTG, E:T 5:1, 96 h) [13]: 0.05 nM

EC50 [12]: 6.12 nM
EC50 [3]: 5.08 nM
EC50 [4]: 35.5 nM
EC50 [14]: 30.1 nM
EC50 [15]: 1.04 nM
B11: 32H2Fab-SP4VHL (bispecific antibody)
heavy: EVQLVESGGGLVKPGGSLRLSCAASGFSFRTYAMSWVRQAPGKSLEWVATISSGSSYIYYPDSVKGRFTVSRDNAKNSLYLQMNSLRAEDTAVYYCTCYRMETFEYWGQGTLVTVSSASTKGPSVFPLAPSSKSTSGGTAALGCLVKDYFPEPVTVSWNSGALTSGVHTFPAVLQSSGLYSLSSVVTVPSSSLGTQTYICNVNHKPSNTKVDKKVEPKSCGGGGSGGGGSGGGGSEVQLVESGGGLVQPGGSLRLSCAASGFTFNTYAMNWVRQAPGKGLEWVARIRSKYNNYATYYADSVKDRFTISRDDSKNTLYLQMNSLRAEDTAVYYCVRHGNFGNSYVSWFAYWGQGTLVTVSSGGGGSGGGGSGGGGSGGGGSQAVVTQEPSLTVSPGGTVTLTCRSSTGAVTTSNYANWVQQKPGQAPRGLIGGTNKRAPGVPARFSGSLLGGKAALTLSGAQPEDEAEYYCALWYSNLWVFGQGTKVEIK
light: B9 light
notes: also called 32H2Fab-SPVHL; 结构10
IC50 of T-cell-mediated killing of CW2 cells (CTG, E:T 5:1, 96 h) [13]: 51 nM
IC50 of T-cell-mediated killing of T84 cells [17]: 1.25 nM
